# Data: PMC4555173, “Octanoylation of early intermediates of mycobacterial methylglucose lipopolysaccharides” (Scientific Reports, 2015)
# Columns and labels:
# M. hassiacum OctT = M. hassiacum OctT (Mycolicibacterium hassiacum, UniProt K5BJH8); assay: CoA release with DTNB at […] nm; format: biochemical; conditions: DGG 20 mM, Oct-CoA 80 μM; product inhibition; enzyme species not given, M. hassiacum inferred from the characterisation
# [1] = molecular target: M. tuberculosis OctT (Rv2418c) (Mycobacterium tuberculosis, UniProt P71725)
# Sequence of M. tuberculosis OctT (Rv2418c) (P71725 whole entry): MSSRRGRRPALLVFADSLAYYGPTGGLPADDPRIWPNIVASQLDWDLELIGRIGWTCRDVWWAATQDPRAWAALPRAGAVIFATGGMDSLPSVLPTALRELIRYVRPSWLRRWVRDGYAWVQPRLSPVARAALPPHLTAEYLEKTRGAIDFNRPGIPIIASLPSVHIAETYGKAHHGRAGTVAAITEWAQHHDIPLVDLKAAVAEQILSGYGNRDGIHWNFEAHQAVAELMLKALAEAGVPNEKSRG
# purified protein [2] = substrate: O=C(O)[C@@H](CO)O[C@H]1O[C@H](CO[C@H]2O[C@H](CO)[C@@H](O)[C@H](O)[C@H]2O)[C@@H](O)[C@H](O)[C@H]1O; assay: purified protein; format: biochemical, Mycolicibacterium smegmatis; conditions: apparent, Oct-CoA 100 μM, 50 mM BTP, 37 °C
# purified protein [3] = substrate: CCCCCCCC(=O)SCCNC(=O)CCNC(=O)[C@H](O)C(C)(C)COP(=O)(O)OP(=O)(O)OC[C@H]1O[C@@H](n2cnc3c(N)ncnc32)[C@H](O)[C@@H]1OP(=O)(O)O; assay: purified protein; format: biochemical, Mycolicibacterium smegmatis; conditions: apparent, DGG 45 mM, 50 mM BTP, 37 °C, substrate inhibition above 100 μM
# purified protein [4] = substrate: O=C(O)[C@@H](CO)O[C@H]1O[C@H](CO)[C@@H](O)[C@H](O)[C@H]1O; assay: purified protein; format: biochemical, Mycolicibacterium smegmatis; conditions: apparent, Oct-CoA 100 μM, 50 mM BTP, 37 °C
# purified protein [5] = substrate: O=C(O)[C@@H](CO)O[C@H]1O[C@H](CO[C@H]2O[C@H](CO)[C@@H](O)[C@H](O)[C@H]2O)[C@@H](O)[C@H](O)[C@H]1O; assay: purified protein; format: biochemical, Mycolicibacterium hassiacum; conditions: apparent, Oct-CoA 100 μM, 50 mM BTP, 37 °C
# purified protein [6] = substrate: CCCCCCCC(=O)SCCNC(=O)CCNC(=O)[C@H](O)C(C)(C)COP(=O)(O)OP(=O)(O)OC[C@H]1O[C@@H](n2cnc3c(N)ncnc32)[C@H](O)[C@@H]1OP(=O)(O)O; assay: purified protein; format: biochemical, Mycolicibacterium hassiacum; conditions: apparent, DGG 20 mM, 50 mM BTP, 37 °C, substrate inhibition above 100 μM
# purified protein [7] = substrate: CCCCCC(=O)SCCNC(=O)CCNC(=O)[C@H](O)C(C)(C)COP(=O)(O)OP(=O)(O)OC[C@H]1O[C@@H](n2cnc3c(N)ncnc32)[C@H](O)[C@@H]1OP(=O)(O)O; assay: purified protein; format: biochemical, Mycolicibacterium hassiacum; conditions: apparent, DGG 20 mM, 50 mM BTP, 37 °C, substrate inhibition above 100 μM
# purified protein [8] = substrate: O=C(O)[C@@H](CO)O[C@H]1O[C@H](CO)[C@@H](O)[C@H](O)[C@H]1O; assay: purified protein; format: biochemical, Mycolicibacterium hassiacum; conditions: apparent, Oct-CoA 100 μM, 50 mM BTP, 37 °C
molecule,measurement,setting,value
CCCCCCCC(=O)OC[C@H]1O[C@H](OC[C@H]2O[C@H](O[C@H](CO)C(=O)O)[C@H](O)[C@@H](O)[C@@H]2O)[C@H](O)[C@@H](O)[C@@H]1O [compound 1],% loss of activity at 400 μM,M. hassiacum OctT,22%
"O=C(O)[C@@H](CO)O[C@H]1O[C@H](CO[C@H]2O[C@H](CO)[C@@H](O)[C@H](O)[C@H]2O)[C@@H](O)[C@H](O)[C@H]1O [DGG, (2R)-2-O-α-D-glucopyranosyl-(1→6)-α-D-glucopyranosyl-2,3-dihydroxypropanoate]","preparative conversion, TLC and NMR of product",[1],"natural Oct-DGG produced by the M. tuberculosis, M. hassiacum and M. smegmatis recombinant OctT enzymes"
M. smegmatis OctT (Mycolicibacterium smegmatis MC2 155) (protein) MSSETSSESTGHRPVLLVFADSLSYFGPTGGLPADDPRIWPNIVGEQLGWDVELIGRIGWTCRDVWWAATQDPRSWAALPRAGAVVFATSGMDSLPSPLPTALREMIRYVRPPWLRRWVRDGYGWVQPRLSPIARSALPPHVTVEYLEMTRNAIDFNRPGIPVVASLPSVHIAETYGRAHHGREPTVRAITAWAEEHHVPLVDLKAAVADEVFGGRGNPDGIHWSFEAHRAVAELMLKGLAEAGVTQRDSAT,Km,purified protein [2],20.0 ± 3.6 mM
same,kcat/Km,purified protein [2],1.83 ± 0.833 M⁻¹ s⁻¹
same,Km,purified protein [3],0.03 ± 0.01 mM
same,kcat/Km,purified protein [3],1430 ± 483 M⁻¹ s⁻¹
same,Km,purified protein [4],19.0 ± 8.6 mM
M. hassiacum OctT (Mycolicibacterium hassiacum DSM 44199) (protein) MSGRRPTLLVFCDSLSYYGPRGGLPADDPRIWPNIVASQLDWDVELIGRVGWTSRDVWWAATQDPRAWAALPRAGAVIFATGGMDSLPSPLPTALRELIRYIRPPWLRRRVRDLYGWLQPRLSPVSRNALPPHLTAEYLEMTRGAIDFNRPGIPVVAALPSVHIADSYGRAHHGREATARAITEWARQHGVVLVDLKAAVADQVLNGRGNPDGIHWNFEAHQAVAELMLKALAEAGVPCR,Km,purified protein [5],9.5 ± 0.8 mM
same,kcat/Km,purified protein [5],0.167 M⁻¹ s⁻¹
same,Km,purified protein [6],0.06 ± 0.01 mM
same,kcat/Km,purified protein [6],31.7 ± 6.67 M⁻¹ s⁻¹
same,kcat/Km,purified protein [7],35 ± 10 M⁻¹ s⁻¹
same,Km,purified protein [8],6.6 ± 0.78 mM
same,kcat/Km,purified protein [8],0.05 ± 0.00667 M⁻¹ s⁻¹
